Source: the supplement of paper PMC10724198
± gives the standard deviation of the averaged measurements.

Test system: Saccharomyces cerevisiae
Experiment: protein stability index of tFT-peptide fusion (C-terminal peptide) (PSI (0-1 scale)); higher = more stable (slower turnover)
Conditions: genetic background: wild type; temperature: 30 C
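Note: PSI is a weighted mean of sequencing reads over stability bins, variants kept only with over 10 reads, mCherry proximal and sfGFP distal, peptide attached via GGGS linker.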

Point of comparison: QEDNAIAVGWSA, protein stability index 0.673 ± 0.008. Against it:
- PYKASGLAGCAV — higher, 0.697 ± 0.008
- PYLLDTPPPSTP — higher, 0.769 ± 0.043
- PYLLSLLSPLPL — higher, 0.7005 ± 0.007
- PYPPRPATPRPP — within error, 0.682 ± 0.018
- QADHGSSPHSIG — within error, 0.717 ± 0.051
- QCLSIDARNGVT — within error, 0.668 ± 0.095
- QEEKLSKNSKKK — within error, 0.691 ± 0.036
- QEHLSFVATARY — within error, 0.73 ± 0.1
- QEKWSKVSKKKE — within error, 0.749 ± 0.19
- QERKKKRENKKE — lower, 0.63688 ± 5.9e-05
- QFTSPHLNPFRT — within error, 0.6783 ± 0.0058
- QFWRSSSSRLAS — within error, 0.687 ± 0.045
- QGAINSKRRPDQ — lower, 0.603 ± 0.045
- QGLPLCVVQALQ — lower, 0.605 ± 0.042
- QGSSLLPLYFPD — lower, 0.622 ± 0.013
- QGVGSHIPCGTP — lower, 0.64 ± 0.023
- QGVLKYPRPSPP — higher, 0.7071 ± 0.0016
- QHHDPYPHQRSP — within error, 0.686 ± 0.023
- QIEEDINLVTCN — higher, 0.739 ± 0.049
- QKCNPGKRVDRT — higher, 0.692 ± 0.0091
- QKENTKEKKKRE — within error, 0.686 ± 0.015
- QKFKHQNKLQSE — within error, 0.6803 ± 0.0061
- QKGSGITPSPAR — within error, 0.757 ± 0.12
- QKHTTKKTKTRY — higher, 0.728 ± 0.037
- QKKKKEKQKKKG — within error, 0.692 ± 0.023
- QKKNKNKIRTPN — within error, 0.688 ± 0.012
- QKKNNKTTKKTK — within error, 0.686 ± 0.012
- QKQKKKINIEKR — higher, 0.731 ± 0.017
- QKTKEKKKKKRE — within error, 0.708 ± 0.064
- QLFTAKHSDPLD — higher, 0.7444 ± 0.0023
- QLGALIAHSTTF — within error, 0.665 ± 0.13
- QLGVVDVIIGAS — within error, 0.679 ± 0.052
- QLMAYFDITYSS — within error, 0.723 ± 0.045
- QLPSDENSPANR — lower, 0.615 ± 0.019
- QLRYVGRSISRM — within error, 0.659 ± 0.037
- QMRRRGARRAKP — higher, 0.743 ± 0.027
- QNLRLRKNIDIK — higher, 0.76 ± 0.014
- QNQTYQKQKSKE — within error, 0.71 ± 0.068
- QNWREDNKGKDI — within error, 0.697 ± 0.032
- QPDQSKPSTPEP — within error, 0.674 ± 0.051
- QPLDCPPYHPHH — within error, 0.687 ± 0.016
- QPPSPHTLRADI — higher, 0.787 ± 0.0037
- QQATLYCTTVRK — within error, 0.682 ± 0.014
- QRCAVRSSFYVL — within error, 0.641 ± 0.059
- QRCWSRKGVNSL — within error, 0.67 ± 0.025
- QRGLERVVVGGI — within error, 0.667 ± 0.016
- QRKKKDRTMKKR — lower, 0.631 ± 0.026
- QRKNQKKKHNRR — higher, 0.7159 ± 0.0027
- QRQPPEACPKNS — higher, 0.747 ± 0.01
- QRRRQEKRKKQD — within error, 0.654 ± 0.077
- QRSGNEDWKDLL — higher, 0.888 ± 0.024
- QSAAPISTPSLC — higher, 0.694 ± 0.012
- QSCQSKGSEVGE — within error, 0.696 ± 0.054
- QSGTRRRKRCSD — within error, 0.693 ± 0.042
- QSILGLVERVIK — within error, 0.643 ± 0.032
- QSPSHSYLCHLF — within error, 0.583 ± 0.097
- QSRSEVFPCHAS — higher, 0.848 ± 0.15
- QSSWGGRWVRGG — within error, 0.669 ± 0.011
- QTAAGLKPMSNR — within error, 0.777 ± 0.17
- QTIRNLEVPLTG — higher, 0.751 ± 0.017
- QTKEGSDRHRSS — higher, 0.748 ± 0.015
- QTPLPPSAISPP — higher, 0.7124 ± 0.005
- QTPPPLPSPHPH — within error, 0.635 ± 0.09
- QTPPPRLPPRPP — within error, 0.669 ± 0.062
- QTQSNTRIERKK — within error, 0.668 ± 0.057
- QTTKPRDPPLHP — within error, 0.787 ± 0.13
- QVDLVCKKVVGV — within error, 0.655 ± 0.029
- QVFFDTSDHRMG — higher, 0.72 ± 0.029
- QVHNTEICVPLV — within error, 0.679 ± 0.013
- QVISDEHLCRFV — within error, 0.651 ± 0.083
- QVKKKKQNDAKN — within error, 0.646 ± 0.074
- QVRCCQEYSSEE — within error, 0.69 ± 0.026
- QVWMRDCARKFQ — higher, 0.731 ± 0.012
- QYVYIPGLSNLC — lower, 0.632 ± 0.019
- QYWIYTGLKSLS — lower, 0.598 ± 0.039
- RAAQVFPHVLPR — the same, 0.6726 ± 0.0022
- RACLVWKSLGWV — within error, 0.605 ± 0.084
- RACRISSIRVGI — lower, 0.651 ± 0.014
- RAFVSDLPHPKS — within error, 0.704 ± 0.098
- RAKGILPESEQI — higher, 0.72 ± 0.035
- RAKRADPSGPPR — within error, 0.724 ± 0.051
- RALGDGRLGQDT — within error, 0.682 ± 0.014
- RALITRAPSKER — higher, 0.795 ± 0.084
- RALSPFPSILPS — within error, 0.719 ± 0.068
- RAMGDRSIRLDV — within error, 0.679 ± 0.02
- RAPPPPHPSSPP — within error, 0.744 ± 0.079
- RAPVRPSEYTRP — within error, 0.681 ± 0.028
- RARASLIPNAGT — within error, 0.705 ± 0.037
- RARTKGRMRTCR — within error, 0.749 ± 0.15
- RASQRGVRGGGG — within error, 0.666 ± 0.02
- RAWELPRLRGRE — within error, 0.6682 ± 0.0039
- RCAGWSVDVGEG — within error, 0.623 ± 0.17
- RCCVPCWFMTLV — lower, 0.555 ± 0.021
- RCFQPLRQRMGR — within error, 0.734 ± 0.064
- RCGGIWWIVSSV — within error, 0.669 ± 0.081
- RCHAFGEWLRGW — higher, 0.733 ± 0.003
- RCLGFSACPATY — within error, 0.809 ± 0.14
- RCLRGGMLGFGR — within error, 0.627 ± 0.052
- RCPRRASSPTLS — within error, 0.843 ± 0.17
- RCSPPVFDTGES — within error, 0.652 ± 0.017
- RCTLSSFIYFCP — lower, 0.601 ± 0.039
- RCTPPPPTPPAT — within error, 0.6832 ± 0.0027
- RCVGVLYVAGLE — lower, 0.6533 ± 0.0012
- RCVGWRRTPESS — within error, 0.739 ± 0.064
- RDGLVPFCVVII — lower, 0.615 ± 0.048
- RDKKMKHIKDKR — within error, 0.79 ± 0.11
- RDLGPSAISMTV — within error, 0.628 ± 0.043
- RDPPLLQPTTSS — within error, 0.648 ± 0.018
- RDQMDNILQRFR — within error, 0.656 ± 0.077
- RDSMVFEVRYSQ — within error, 0.698 ± 0.1
- REEKRREEEGKK — within error, 0.701 ± 0.028
- REGGDPPDGGTG — higher, 0.734 ± 0.039
- REKEIIIIKKEK — within error, 0.683 ± 0.037
- RETSGEVESDVT — within error, 0.678 ± 0.014
- REVGSTILAVVH — within error, 0.645 ± 0.031
- RFAPCSPPADPS — within error, 0.68 ± 0.019
- RFCRPVCRFNLG — within error, 0.647 ± 0.063
- RFLCPSSFIELL — within error, 0.794 ± 0.12
- RFLESNGRPFHK — the same, 0.673 ± 0.0088
- RFRDSGRWLSAE — higher, 0.765 ± 0.063
- RFRTVFFPLPRC — within error, 0.716 ± 0.062
- RFVCSRLGGSVP — lower, 0.64 ± 0.0029
- RGARRHSPTARW — within error, 0.717 ± 0.037
- RGAVEAGGWRIG — within error, 0.682 ± 0.0087
- RGFGPTPRSSGG — within error, 0.707 ± 0.046
- RGFPALLPAPAC — within error, 0.753 ± 0.12
- RGGAGGRQGCGG — higher, 0.746 ± 0.043
- RGGARGRQGCGG — higher, 0.765 ± 0.034
- RGGGAGAVQYRS — lower, 0.642 ± 0.014
- RGGGGGGIGFPR — within error, 0.681 ± 0.066
- RGGGGGRVAREC — within error, 0.668 ± 0.011
- RGGGQAKAPAGD — lower, 0.6566 ± 0.0011
- RGGWGGYRGGVP — higher, 0.757 ± 0.021
- RGGWWGYRGGVP — within error, 0.718 ± 0.057
- RGIFLGVCALDY — higher, 0.696 ± 0.0085
- RGKGGKKRRKRD — within error, 0.648 ± 0.07
- RGKKKAKIYREH — within error, 0.766 ± 0.13
- RGLDNSGVVAGG — higher, 0.715 ± 0.025
- RGLGGWAECGRW — higher, 0.76 ± 0.05
- RGLGLVGLGGGG — higher, 0.727 ± 0.012
- RGLRIRFKKIDK — within error, 0.704 ± 0.078
- RGNSPPPSSPPL — within error, 0.687 ± 0.038
- RGPGRTPLGRQL — higher, 0.68915 ± 0.00044
- RGRRFMRGEVGG — lower, 0.6528 ± 0.0055
- RGRWGVYISSWV — within error, 0.626 ± 0.048
- RGSPCPQRAALH — within error, 0.7 ± 0.035
- RGSQRVVVSLGW — higher, 0.726 ± 0.0073
- RGVGFMGEGVTW — within error, 0.656 ± 0.069
- RGVGGAPVWPFV — higher, 0.765 ± 0.0093
- RGVLVTVNWVSG — lower, 0.499 ± 0.038
- RGVREVGSAELV — higher, 0.731 ± 0.022
- RGVVRYVNGSRG — lower, 0.568 ± 0.083
- RGYVSLSEGVAA — within error, 0.676 ± 0.058
- RHAMNPNTSRVL — lower, 0.601 ± 0.042
- RHGDRLEHPIPV — lower, 0.611 ± 0.031
- RHLESERAPLPG — within error, 0.688 ± 0.018
- RHPEVGAATDGC — within error, 0.708 ± 0.068
- RHSAQRPRARHP — higher, 0.79 ± 0.032
- RICRWGSRAVVG — within error, 0.685 ± 0.015
- RIETHNQKSPGL — higher, 0.737 ± 0.0023
- RIGRHLATSRRV — within error, 0.679 ± 0.0089
- RIHQRTSLHKAH — within error, 0.609 ± 0.13
- RIKKKKNKARDI — higher, 0.734 ± 0.035
- RIKNMNNNEEKR — within error, 0.714 ± 0.2
- RIKTRDVSGNYC — higher, 0.708 ± 0.026
- RILFGALYSSCK — within error, 0.6782 ± 0.0062
- RILPPPPPPSSR — higher, 0.754 ± 0.026
- RIPHRTRLARPT — within error, 0.6716 ± 0.0064
- RIRPPPAPPPPP — lower, 0.569 ± 0.019
- RITKKRQQIKKR — higher, 0.7482 ± 0.0028
- RIVLGCSVVLRG — lower, 0.615 ± 0.012
- RIVLLICPYPVL — lower, 0.554 ± 0.056
- RIWEVQFRRLSE — higher, 0.823 ± 0.074
- RKEETINKESRR — higher, 0.742 ± 0.032
- RKEGRRGRRGAK — within error, 0.691 ± 0.069
- RKETQKIRKKRI — within error, 0.679 ± 0.03
- RKGEASRVRWSE — within error, 0.668 ± 0.061
- RKGRVLIMTYRK — within error, 0.682 ± 0.051
- RKGSVVILGLGL — lower, 0.65248 ± 0.0003
- RKKFKKQKKKNI — within error, 0.703 ± 0.073
- RKKGGNSKKGKN — within error, 0.774 ± 0.12
- RKKHKYNKKNGQ — within error, 0.666 ± 0.07
- RKKREKKGRRGK — within error, 0.668 ± 0.0068
- RKKRNKDARQQN — within error, 0.679 ± 0.057
- RKLAEVNCTVKV — within error, 0.664 ± 0.036
- RKRASHALTPPC — higher, 0.732 ± 0.024
- RKRVKRTIYESK — within error, 0.635 ± 0.1
- RKSPRDTGLQRA — within error, 0.706 ± 0.19
- RKTPAITSNIQI — higher, 0.722 ± 0.027
- RKTPIKTKKSAR — within error, 0.687 ± 0.09
- RLEERTNIKKIK — within error, 0.699 ± 0.045
- RLELRVPPSFAH — higher, 0.715 ± 0.0095
- RLFSPLRPLSPP — within error, 0.668 ± 0.032
- RLFSSSCLPFPP — within error, 0.781 ± 0.16
- RLGAELGQLRCC — within error, 0.66 ± 0.04
- RLGGSLQRGKVV — within error, 0.734 ± 0.088
- RLGNVGVGVGVG — lower, 0.616 ± 0.039
- RLGRSEVREYAW — higher, 0.716 ± 0.024
- RLHPPRPLTPPL — within error, 0.683 ± 0.0087
- RLKFCLSICLAP — higher, 0.7321 ± 0.003
- RLKKKKKEIKRR — higher, 0.721 ± 0.011
